Data on 8 molecules can be found in patent US20180289790A1 (Bristol-Myers Squibb, published 2018).

The target in assay [1] is human ICOS (huICOS), on activated human CD4+ T cells (human) (UniProt Q9Y6W8). The experiment in a line: cell-based or functional assay.
The target in assay [2] is hCD32a-R131 (human) (UniProt P12318). The experiment in a line: method not stated (Table 9, 'µM Kd').
Assay [3] addresses hCD32a-H131 (human) (UniProt P12318). The assay can be described thus: method not stated (Table 9, 'µM Kd').
Assay [4] has as its target hCD16a-V158 (human) (UniProt P08637). The experiment in a line: method not stated (Table 9, 'µM Kd').
Assay [5] has as its target hCD64 (human) (UniProt P12314). The experiment in a line: method not stated (Table 9, 'µM Kd').
The target of assay [6] is hCD16a-F158 (human) (UniProt P08637). The experiment in a line: method not stated (Table 9, 'µM Kd').
Chain of hCD16a-F158 (human) (P08637 17-208 limits assumed): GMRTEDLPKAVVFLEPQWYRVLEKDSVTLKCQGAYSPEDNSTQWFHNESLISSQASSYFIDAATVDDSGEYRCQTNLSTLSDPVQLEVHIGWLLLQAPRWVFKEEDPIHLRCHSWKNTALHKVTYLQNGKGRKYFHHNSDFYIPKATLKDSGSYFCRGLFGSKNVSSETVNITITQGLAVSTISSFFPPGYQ
The target in assay [7] is hCD32b (human) (UniProt P31994). The assay can be described thus: method not stated (Table 9, 'µM Kd').
Chain of hCD32b (human) (P31994 43-217 limits assumed): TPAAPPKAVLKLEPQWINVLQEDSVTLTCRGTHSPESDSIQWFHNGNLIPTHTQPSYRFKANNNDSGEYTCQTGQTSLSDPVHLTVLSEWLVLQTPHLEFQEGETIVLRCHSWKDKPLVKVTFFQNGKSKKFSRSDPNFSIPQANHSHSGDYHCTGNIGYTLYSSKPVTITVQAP
The target of assay [8] is T1, human ICOS Fc (R&D Systems, 169-CS-050) (human, UniProt Q9Y6W8 21-140).
T1 construct: Bought construct; also called human ICOS with an Fc tag; not shown: Fc tag
T1 sequence: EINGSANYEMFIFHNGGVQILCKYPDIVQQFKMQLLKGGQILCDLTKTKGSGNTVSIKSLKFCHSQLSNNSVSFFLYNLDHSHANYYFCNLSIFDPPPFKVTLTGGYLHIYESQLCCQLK
The experiment in a line: SPR (Biacore T200), 37 °C, human ICOS Fc captured by anti-hFc on a CM4 chip, Fab as analyte, 1:1 Langmuir model. Background: Surface plasmon resonance follows binding to a sensor surface in real time, without labels.

In assay [9] the target is T2, huICOS/Fc (human, UniProt Q9Y6W8 21-140).
T2 construct: also called huICOS polypeptide construct; human ICOS antigen; not shown: Fc part
T2 sequence: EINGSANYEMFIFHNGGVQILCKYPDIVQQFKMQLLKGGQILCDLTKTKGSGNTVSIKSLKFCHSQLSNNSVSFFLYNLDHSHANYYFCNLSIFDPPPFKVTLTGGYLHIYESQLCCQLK
The experiment in a line: SPR binning: reference antibody on chip, test antibody pre-incubated with huICOS/Fc.

Assay [10] concerns the target T2, huICOS/Fc. The experiment in a line: HDX-MS, ICOS-Fc mixed with mAb at 1:1 ratio.
Protocol: ICOS-Fc was mixed with mAbs at 1:1 ratio and HDX-MS was run for one minute, 10 minutes, 4 hours in duplicate.

Chain of hCD32a-H131 (human) (P12318 36-218 limits assumed): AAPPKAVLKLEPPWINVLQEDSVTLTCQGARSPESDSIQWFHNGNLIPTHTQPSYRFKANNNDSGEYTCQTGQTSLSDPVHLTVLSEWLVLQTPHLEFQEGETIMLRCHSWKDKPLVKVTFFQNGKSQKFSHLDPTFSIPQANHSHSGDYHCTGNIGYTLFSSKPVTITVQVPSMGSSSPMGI
Chain of hCD64 (human) (P12314 16-288 limits assumed): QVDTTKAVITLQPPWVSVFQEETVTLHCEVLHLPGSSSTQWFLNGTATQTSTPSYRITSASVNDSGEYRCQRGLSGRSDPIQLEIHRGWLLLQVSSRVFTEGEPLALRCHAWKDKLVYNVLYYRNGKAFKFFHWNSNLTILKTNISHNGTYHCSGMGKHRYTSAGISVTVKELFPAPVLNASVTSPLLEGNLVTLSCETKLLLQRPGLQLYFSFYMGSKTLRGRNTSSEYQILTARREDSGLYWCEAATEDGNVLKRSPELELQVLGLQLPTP
Chain of hCD32a-R131 (human) (P12318 36-218 H167R limits assumed): as the sequence (P12318 36-218 limits assumed) above, with H132R counted along it
Chain of hCD16a-V158 (human) (P08637 17-208 F176V limits assumed): as the sequence (P08637 17-208 limits assumed) above, with F160V counted along it

In assay [1], “ICOS.4 (chimeric antibody with the variable regions of hamster antibody C398.4A and human IgG1f constant regions)” showed an EC50 of interferon-gamma secretion, CHO-OKT3-CD32 / CD4+CD25- T cell co-culture of 0.018 µg/mL.
A word on the Kd: it is the concentration at which binding is half-saturated. Consider “human IgG1f (wild type), as in Table 9 (antibody)”, for which the Kd in assay [2] was 960 µM; in assay [3], 530 µM; in assay [4], 97 µM; in [5] it was 0.2 µM; in [6] it was 200 µM; in assay [7], 3400 µM.
Take “human IgG1f-S267E, as in Table 9 (antibody)”: the Kd was determined as 31 µM in [2], 650 µM in assay [3], 0.2 µM in assay [5] and 87 µM in assay [7].

B1: ICOS.33 IgG1f S267E Fab fragment (Lot PC-1804-04) (Fab, V domains shown)
VH: EVQLVESGGGLVKPGGSLRLSCAASGFTFSDYFMHWVRQAPGKGLEWVGVIDTKSFNYATYYSDLVKGRFTISRDDSKNTLYLQMNSLKTEDTAVYYCTATIAVPYYFDYWGQGTLVTVSS
VL: DIQMTQSPSSLSASVGDRVTITCQASQDISNYLSWYQQKPGKAPKLLIYYTNLLAEGVPSRFSGSGSGTDFTFTISSLQPEDIATYYCQQYYNYRTFGPGTKVDIKR
notes: Fab of m1; also called Fab fragment of ICOS.33 IgG1f S267E
In turn, B1 yielded an equilibrium dissociation constant (Kd) in [8] of 0.052 to 0.065 µM.

B2: IgG-2644 (antibody, V domains shown)
VH: EVQLLESGGGLVQPGGSLRLSCEASGFIFKYYAMSWVRQAPGKGLEWVSGISGSGGSTYYADSVKGRFTISRDNSKHTLYLQMNSLRAEDTAVYYCAKDGDFDWIHYYYGMDVWGQGTTVTVSS
VL: AIQLTQSPSSLSASVGDRVTITCRASQGISSALAWYQQKPGKAPKLLIYDASSLESGVPSRFSGSGSGTDFTLTISSLQPEDFATYYCQQFNSYPHTFGGGTKVEIKR
notes: Human antibody from mRNA display, cloned into IgG expression vectors
With B2, the binding result in [9] is given as “binds”.

B3: 17C4 (antibody, V domains shown)
VH: QVTLRESGPALVKPTQTLTLTCTFSGFSLSTSGMCVSWIRQPPGKALEWLALIDWDDDKFYSTSLKTRLTISKDTSKNQVVLTMTNMDPVDTATYYCARMSTPTYYGLDVWGQGTTVTVSS
VL: DIQMTQSPSSLSASVGDRVTITCRASQGISSWLAWYQQKPEKAPKSLIYAASSLQSGVPSRFSGSGSGTDFTLTISSLQPEDFATYYCQQYNSYPLTFGGGTKVEIK
notes: Fully human hybridoma antibody
For the molecule B3, the binding result in assay [9] is given as “binds”.

B4: 3E8 (antibody, V domains shown)
VH: QVQLVESGGGVVQPGMSLRLSCAASGFTFSTYGMQWVRQAPGKGLEWVTVIWHDGSHKDYADSVKGRFTISRDNSKNTMYLQMNSLRAEDTAVYYCARDRQTGEGYFDFWGQGTLVTVSS
VL: DIQMTQSPSSLSASVGDRVTITCRASQGISSWLAWYQQKPEKAPKSLIYAASSLQSGVPSRFSGSGSGTDFTLTISSLQPEDFATYYCQQYNSYPYTFGQGTKLEIK
notes: as for B3
With B4, in [9], the binding result is “binds”.

B5: 9D5 (antibody, V domains shown)
VH: QITLKESGPTLVKPTQTLTLTCTFSGFSLGTSGLGVGWIRQPPGKALEWLAFIYWDDDKRYSPSLKSRLTITKDTSKNQVVLTMTNMDPVDTATYYCAHRRGFFDYWGQGTLVTVSS
VL: DIQMTQSPSSLSASVGDRVTITCRASQGISSWLAWYQQKPEKAPKSLIYAASSLQSGVPSRFSGSGSGTDFTLTISSLQPEDFATYYCQQYNSYPLTFGGGTKVEIK
notes: as for B3
For the molecule B5, the binding result in assay [10] was “binds”.
